In patent publication US20180325979A1 (UNIVERSITY OF SOUTHAMPTON, published 2018):

Biological target: T1, HLA-Cw*0102 on the HLA-Cw*0102-positive cell line L721.174
T1 construct: whole, on cells
Test: MHC class I stabilisation on L721.174 cells, flow cytometry

LNPSVAATL [peptide LNPSVAATL (SEQ ID NO: 5)]: binds.

IVDLMCHATF (also called Dengue virus peptide) [peptide IVDLMCHATF (SEQ ID NO: 1)]: binds.
